Experimental data reported in US20240327502A1 (Merck Sharp & Dohme, published 2024).
Where two headings read alike, the source gives them in different places.

B1: M1A04 (antibody, V domains shown)
VH: EVQLVESGGGLVRPGGSLRLSCAASGFNVRNYYMSWVRQAPGKGLEWISVIYGGGTTFYAGSVKGRFTISRDDSKSTLFLQMNSLRADDTAVYYCARDPGTVMSTENLQGMDVWGQGTTVTVSS
VL: DIQMTQSPSSLSASVGDRVTITCRASQTIRSYLNWYQQKPGKAPNLLIYAATSLQSGVPSRFSGSGSGTDFTLTISSLQPEDSATYYCQQSFSTLYSFGQGTRLEIK
notes: IgG
B2: M4B06 (antibody, V domains shown)
VH: EVQLLESGGGFVQPGGSLRLSCVVTGFTFSNYAMCWVRQAPGKGPEWVSGIGGSVGTTYYADSVKGRFTISRDNSKNTLYLQMSGLRAEDTARYYCAKVPSFFVFEDGFDMWGQGTVVTVSS
VL: QSVLTQPPSASGNPGQRVTISCYGSGSNIGNNYVHWFRQLPGTAPRLLIYNTDILVPGVPDRFSGSESGTSASLAISGLQSGDEADYFCAAWDDTLNGYVFGPGTTVTVL
B3: M3C06 (antibody, V domains shown)
VH: QVQLVQSGAEVKKPGSSVKVSCKAYGGTLSNYAISWVRQAPGQGLHWMGRIIPVMNVANYADNFQGRVTITADKSTSTAYMELSSLRSEDAAIYYCATARGLGSLEGGDAFDVWGQGTMLTVSS
VL: DIVMTQSPDSVAVSLGERATISCKSSLSLLYSSNNKNYLVWYQQKPGQPPKLLFYWASTRESGVPDRFSASGSGTDFTLTISSLQAEDVAVYYCQQYYSTPITFGQGTRLEIR
notes: IgG
B4: M4A10 (antibody, V domains shown)
VH: QVQLVQSGAEVKKPGASVKVSCKASGYTFNGHYLHWVRQAPGQGLEWMGWINPNSGGTDYAQRFQGRVTMTRGTSISTAYMELSRLTSDDTAVYFCARDNFGFWSASSGRHNWLDSWGQGTLVIVSS
VL: NFMLTQPHSVSESPGKTVTISCTRSTGNIASNYVQWYQQRPGSSPTTVIYEDNQRPSAVPDRFSGSIDSSSNSASLTVSGLRTEDEADYYCQSYDSGHHVVFGGGTKLTVL
notes: IgG
B5: M8C10 (antibody, V domains shown)
VH: QVQLVESGGGVVQPGRSLRLSCAASGFTFTTYTMHWVRQAPGKGLEWVALISSDGNNKYYADSVKGRFTISRDNSKNTLYLQMSSLRAEDTAVYYCARGYYSGGDAFDVWGQGTMVTVSS
VL: DIQMTQSPSTLSASVGDRVTITCRASQTITIWLAWYQQKPGKAPKLLIYDAVSLESGVPSRFRGSGSGTDFTLTISSLQPDDFATYYCQQYNNYPYTFGQGTKLEIKR

What was measured:
D414K = biological target: T1, D414K; experiment: ELISA; Ni-NTA plate coated with Expi293 supernatant containing the His-tagged antigen; antibody titrated; OD450
T1 construct: also called unprocessed hMPV PreF D414K

[1] = biological target: T2, unprocessed hMPV PreF trimeric antigen (human metapneumovirus strain B2); experiment: as above
T2 construct: also called unprocessed hMPV WT PreF trimer; hMPV WT trimer

[2] = biological target: T3, F protein of hMPV B virus (human metapneumovirus subtype B); experiment: cell-based or functional assay
[3] = biological target: T4, F protein of hMPV A virus (human metapneumovirus subtype A); experiment: cell-based or functional assay
[4] = biological target: T5, F protein of hMPV A MARM virus G264R/Q434H (human metapneumovirus subtype A); experiment: cell-based or functional assay
[5] = biological target: T6, F protein of hMPV A MARM virus K138Q (human metapneumovirus subtype A); experiment: cell-based or functional assay
[6] = biological target: T7, F protein of hMPV A MARM virus V231A/G264R (human metapneumovirus subtype A); experiment: cell-based or functional assay
[7] = biological target: T5, F protein of hMPV A MARM virus …; experiment: cell-based or functional assay; remark: listed apart in the source
[8] = biological target: T6, F protein of hMPV A MARM virus K138Q; experiment: cell-based or functional assay; remark: listed apart in the source
[9] = biological target: T7, F protein of hMPV A MARM virus …; experiment: cell-based or functional assay; remark: listed apart in the source
[10] = biological target: T4, F protein of hMPV A virus; experiment: cell-based or functional assay; remark: listed apart in the source
T143K = biological target: T8, T143K; experiment: ELISA; Ni-NTA plate coated with Expi293 supernatant containing the His-tagged antigen; antibody titrated; OD450
T8 construct: also called unprocessed hMPV PreF T143K

N135T G139N Y233N = biological target: T9, N135T G139N Y233N; experiment: as above
T9 construct: also called unprocessed hMPV PreF N135T/G139N/Y233N

[11] = biological target: T2, unprocessed hMPV PreF trimeric antigen; experiment: as above; remark: listed apart in the source
[12] = biological target: T3, F protein of hMPV B virus; experiment: cell-based or functional assay; remark: listed apart in the source
[13] = biological target: T4, F protein of hMPV A virus; experiment: cell-based or functional assay; remark: listed apart in the source

Binder	PRNT IC50 [2]	PRNT IC50 [3]	binding result (N135T G139N Y233N)	EC50 (read off the curve) [11]	other results
B1	0.128 mg/L	0.0872 mg/L			binding result (D414K): binds; EC50 (read off the curve) [1]: ~0.005 mg/L
B2	0.0022 mg/L	0.0035 mg/L			fold reduction of neutralization potency against the MARM virus [4]: 70 fold; fold reduction of neutralization potency against the MARM virus [5]: 49 fold; fold reduction of neutralization potency against the MARM virus [6]: 52 fold; IC50, hMPV plaque reduction neutralization [7]: 0.7 mg/L; IC50, hMPV plaque reduction neutralization [8]: 0.49 mg/L; IC50, hMPV plaque reduction neutralization [9]: 0.524 mg/L; IC50, hMPV plaque reduction neutralization [10]: 0.0103 mg/L
B3	0.0617 mg/L	> 10 mg/L	binds	~0.009 mg/L	binding result (T143K): no binding (tested: about 3000 ng/mL)
B4	0.0301 mg/L	> 10 mg/L	binds	~0.006 mg/L	EC50 (read off the curve) (T143K): ~0.002 mg/L
B5	0.66 mg/L	0.37 mg/L			virus neutralization IC50, MPV strain B2 [12]: 0.66 µM; virus neutralization IC50, MPV strain A1 [13]: 0.371 µM
